Laboratory results: IntAct's records for PubMed 23756461

B1: Cell shape-determining protein MreB (Escherichia coli (strain K12)), P0A9X4 (parent)
chain: MLKKFRGMFSNDLSIDLGTANTLIYVKGQGIVLNEPSVVAIRQDRAGSPKSVAAVGHDAKQMLGRTPGNIAAIRPMKDGVIADFFVTEKMLQHFIKQVHSNSFMRPSPRVLVCVPVGATQVERRAIRESAQGAGAREVFLIEEPMAAAIGAGLPVSEATGSMVVDIGGGTTEVAVISLNGVVYSSSVRIGGDRFDEAIINYVRRNYGSLIGEATAERIKHEIGSAYPGDEVREIEVRGRNLAEGVPRGFTLNSNEILEALQEPLTGIVSAVMVALEQCPPELASDISERGMVLTGGGALLRNLDRLLMEETGIPVVVAEDPLTCVARGGGKALEMIDMHGGDLFSEE
B2: Cell division protein FtsZ (Escherichia coli (strain K12)), P0A9A6 (parent)
chain: MFEPMELTNDAVIKVIGVGGGGGNAVEHMVRERIEGVEFFAVNTDAQALRKTAVGQTIQIGSGITKGLGAGANPEVGRNAADEDRDALRAALEGADMVFIAAGMGGGTGTGAAPVVAEVAKDLGILTVAVVTKPFNFEGKKRMAFAEQGITELSKHVDSLITIPNDKLLKVLGRGISLLDAFGAANDVLKGAVQGIAELITRPGLMNVDFADVRTVMSEMGYAMMGSGVASGEDRAEEAAEMAISSPLLEDIDLSGARGVLVNITAGFDLRLDEFETVGNTIRAFASDNATVVIGTSLDPDMNDELRVTVVATGIGMDKRPEITLVTNKQVQQPVMDRYQQHGMAPLTQEQKPVAKVVNDNAPQTAKEPDYLDIPAFLRKQAD

Variants of: B1
Details: with ftsz_ecoli ftsZ
For D285A, the “effect of a mutation on the interaction” value was “disrupting interaction”.

Variants of: B2
Details: with mreb_ecoli mreB
With MFEPMELTNDAVIKVIGVGGGGGNAVEHMVRERIEGVEFFAVNTDAQALRKTAVGQTIQIGSGITKGLGAGANPEVGRNAADEDRDALRAALEGADMVFIAAGMGGGTGTGAAPVVAEVAKDLGILTVAVVTKPFNFEGKKRMAFAEQGITELSKHVDSLITIPNDKLLKVLGRGISLLDAFGAANDVLKGAVQGIAELITRQGLMNVDFADVRTVMSEMGYAMMGSGVASGEDRAEEAAEMAISSPLLEDIDLSGARGVLVNITAGFDLRLDEFETVGNTIRAFASDNATVVIGTSLDPDMNDELRVTVVATGIGMDKRPEITLVTNKQVQQPVMDRYQQHGMAPLTQEQKPVAKVVNDNAPQTAKEPDYLDIPAFLRKQAD [P203Q] the “effect of a mutation on the interaction” value was “disrupting interaction”.
